Patent US7063965 (Regeneron, dated 2006)

What was measured:
[1] = biological target: TIE-2 receptor on ABAE (Adult Bovine Arterial Endothelial) cells (bovine, UniProt Q06807 23-1125); assay: cell-based or functional assay
[2] = biological target: T1, EHK-1 receptorbody (rEHK-1 ecto/hIgG1 Fc) (rat; human, UniProt P54757 27-575); assay: SPR (BIAcore), conditioned medium preincubated with soluble receptorbody before injection over immobilised TIE-2 RB
T1 construct: extracellular domain; also called EHK-1 RB; soluble EHK-1 RB

[3] = biological target: T2, rat TIE-2 receptorbody (entire extracellular portion of the rat TIE-2 receptor fused to human IgG1 Fc) (rat; human, UniProt A0ABK0L6J5 19-740); assay: SPR (BIAcore), >50x concentrated conditioned medium over immobilised TIE-2 RB
T2 construct: extracellular domain; also called TIE-2 RB; r TIE-2 ecto/h IgG1 Fc; not shown: human immunoglobulin gamma-1 constant region (IgG1 Fc), from the hinge region to the carboxy-terminus
Description: Purified TIE-2 RB was covalently coupled through primary amines to the carboxymethyl dextran layer of a CM5 research grade sensor chip (Pharmacia Biosensor; Piscataway, N.J.). The sensor chip surface was activated using a mixture of N-hydroxysuccinimide (NHS) and N-ethyl-N'-(3-dimethylaminopropyl)carbodiimide (EDC), followed by immobilization of TIE-2 RB (25 µg/mL, pH 4.5) and deactivation of unreacted sites with 1.0 M ethanolamine (pH 8.5). A negative control surface of the EHK-1 receptorbody was prepared in a similar manner.
The running buffer used in the system was HBS (10 mM Hepes, 3.4 mM EDTA, 150 mM NaCl, 0.005% P20 surfactant, pH 7.4). […] Aliquots of 40 µL were injected across the immobilized surface (either TIE-2 or EHK-1) at a flow rate of 5 µL/min and the receptor binding was monitored for 8 min. The binding activity (resonance units, RU) was measured as the difference between a baseline value determined 30 s prior to the sample injection and a measurement taken at 30 s post-injection. […]
The instrument noise level is 20 RU; therefore, any binding activity with a signal above 20 RU may be interpreted as a real interaction with the receptor. […] For the same samples assayed on a EHK-1 RB immobilized surface, the measured activities were less than 35 RU. […]

T1 sequence (P54757 27-575): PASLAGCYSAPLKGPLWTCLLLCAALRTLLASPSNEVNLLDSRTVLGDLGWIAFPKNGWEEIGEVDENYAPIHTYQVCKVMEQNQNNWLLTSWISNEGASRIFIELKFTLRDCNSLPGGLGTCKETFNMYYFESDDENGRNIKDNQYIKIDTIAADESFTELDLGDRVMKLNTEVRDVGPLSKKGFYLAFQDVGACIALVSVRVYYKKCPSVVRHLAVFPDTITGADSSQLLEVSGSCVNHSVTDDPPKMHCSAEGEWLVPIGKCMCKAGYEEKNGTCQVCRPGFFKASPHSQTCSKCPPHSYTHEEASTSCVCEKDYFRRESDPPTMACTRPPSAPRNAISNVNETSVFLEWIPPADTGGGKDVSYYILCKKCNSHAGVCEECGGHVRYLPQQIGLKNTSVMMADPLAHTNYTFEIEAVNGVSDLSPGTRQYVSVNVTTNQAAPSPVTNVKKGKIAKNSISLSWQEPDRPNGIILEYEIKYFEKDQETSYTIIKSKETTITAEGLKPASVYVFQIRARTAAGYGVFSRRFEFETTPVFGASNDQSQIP
Sequence of TIE-2 receptor on ABAE (Adult Bovine Arterial Endothelial) cells (Q06807 23-1125): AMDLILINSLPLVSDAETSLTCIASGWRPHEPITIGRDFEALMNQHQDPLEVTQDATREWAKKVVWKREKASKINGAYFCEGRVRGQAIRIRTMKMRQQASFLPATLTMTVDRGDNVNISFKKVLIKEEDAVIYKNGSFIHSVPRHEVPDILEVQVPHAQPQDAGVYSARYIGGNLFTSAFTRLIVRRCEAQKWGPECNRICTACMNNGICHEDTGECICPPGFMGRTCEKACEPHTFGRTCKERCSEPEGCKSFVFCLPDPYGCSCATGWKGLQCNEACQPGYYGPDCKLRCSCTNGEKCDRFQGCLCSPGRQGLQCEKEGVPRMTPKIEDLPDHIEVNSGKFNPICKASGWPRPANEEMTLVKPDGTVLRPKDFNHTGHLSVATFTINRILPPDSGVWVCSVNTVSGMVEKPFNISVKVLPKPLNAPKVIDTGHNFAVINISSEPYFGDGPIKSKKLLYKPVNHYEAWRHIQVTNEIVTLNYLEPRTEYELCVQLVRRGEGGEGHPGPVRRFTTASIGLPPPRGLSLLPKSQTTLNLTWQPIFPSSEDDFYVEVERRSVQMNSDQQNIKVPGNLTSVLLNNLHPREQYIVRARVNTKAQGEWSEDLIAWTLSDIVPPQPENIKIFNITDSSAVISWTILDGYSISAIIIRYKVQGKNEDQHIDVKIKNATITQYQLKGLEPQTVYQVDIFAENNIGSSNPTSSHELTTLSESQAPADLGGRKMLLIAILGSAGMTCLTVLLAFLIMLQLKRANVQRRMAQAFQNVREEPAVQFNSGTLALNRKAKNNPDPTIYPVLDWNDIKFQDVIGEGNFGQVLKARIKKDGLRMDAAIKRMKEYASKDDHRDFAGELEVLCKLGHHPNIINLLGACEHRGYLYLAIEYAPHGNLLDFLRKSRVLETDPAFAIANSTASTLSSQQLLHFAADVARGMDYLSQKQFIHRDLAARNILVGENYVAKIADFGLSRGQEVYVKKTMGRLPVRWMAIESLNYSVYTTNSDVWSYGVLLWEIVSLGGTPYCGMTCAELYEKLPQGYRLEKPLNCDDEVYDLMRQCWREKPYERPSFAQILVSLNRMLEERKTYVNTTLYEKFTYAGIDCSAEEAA

TIE-2 tyrosine phosphorylation in ABAE cells (immunoprecipitation and Western blot) [1]: 100 fold | binding result [2]: no binding (tested: excess) | fold enhancement over background of the TIE-2 specific binding signal [3]: 4 fold
B1: TIE-2 ligand in C2C12-ras conditioned medium (ligand, mouse, UniProt O08538 20-498, looked up)
chain: SNQRRNPENGGRRYNRIQHGQCAYTFILPEHDGNCRESATEQYNTNALQRDAPHVEPDFSSQKLQHLEHVMENYTQWLQKLENYIVENMKSEMAQIQQNAVQNHTATMLEIGTSLLSQTAEQTRKLTDVETQVLNQTSRLEIQLLENSLSTYKLEKQLLQQTNEILKIHEKNSLLEHKILEMEGKHKEELDTLKEEKENLQGLVSRQTFIIQELEKQLSRATNNNSILQKQQLELMDTVHNLISLCTKEGVLLKGGKREEEKPFRDCADVYQAGFNKSGIYTIYFNNMPEPKKVFCNMDVNGGGWTVIQHREDGSLDFQRGWKEYKMGFGNPSGEYWLGNEFIFAITSQRQYMLRIELMDWEGNRAYSQYDRFHIGNEKQNYRLYLKGHTGTAGKQSSLILHGADFSTKDADNDNCMCKCALMLTGGWWFDACGPSNLNGMFYTAGQNHGKLNGIKWHYFKGPSYSLRSTTMMIRPLDF
notes: Unpurified activity in concentrated conditioned medium; also called C2C12-ras 10xCCM
